The RNAGym collection of RNA variant scans (doi:10.7554/elife.80360)

B1: Hairpin Ribozyme (parent)
chain: GUCCUCUUUCACGUGCGCGUGAAAGAGAGAAGUGAACCAGAGAAACACACGUUGUGGUAUAUUACCUGGUA

Variants of: B1
Assay: self-cleavage, relative activity (ratio to wild type); higher = more cleavage; co-transcriptional

Which self-cleavage does the source give for GUCCUCUUUCACGUGCGCGUGAUAGAGCGAAGUGAACCAGAGAAACACACGUUGUGGUAUAUUACCUGGUA here?
The self-cleavage was 0.613.

Which self-cleavage does the source give for GUCCUCUUUCACGUGCGCGUGAUAGAGAGAAGUGAACCAGAGAAACACACGUUGUCGUAUAUUACCUGGUA here?
The self-cleavage was 0.174.

With GUCCUCUUUCACGUGCGCGUGAUAGAGACAAGUGAACCAGAGAAACACACGUUGUGGUAUAUUACCUGGUA as the variant, how does the self-cleavage read?
The self-cleavage was 0.145.

With GUCCUCUUUCACGUGCGCGUGAUAGAGAGAAGUGAACCCGAGAAACACACGUUGUGGUAUAUUACCUGGUA as the variant, how does the self-cleavage read?
The self-cleavage was 0.483.

With GUCCUCUUUCACGUGCGCGUGAUAGAGAGAAGUGAACCAGAGAAACACACGUUCUGGUAUAUUACCUGGUA as the variant, how does the self-cleavage read?
The self-cleavage was 0.551.

For GUCCUCUUUCACGUGCGCGUGAUAGAGAGAAGUGAACCAGAGAAACACACGUUUUGGUAUAUUACCUGGUA, which self-cleavage is on record?
The self-cleavage was 0.538.

For GUCCUCUUUCACGUGCGCGUGAUAGAGAGAAGUGAACCAGAGAAACACACGUUGUGGGAUAUUACCUGGUA, which self-cleavage is on record?
The self-cleavage was 0.663.

For GUCCUCUUUCACGUGCGCGUGAUAGAGAGAAGUGAACCAGAGAAACACACGUUGUGGCAUAUUACCUGGUA, which self-cleavage is on record?
The self-cleavage was 1.05.

For GUCCUCUUUCACGUGCGCGUGAUAGAGAGAAGUGAACCAGUGAAACACACGUUGUGGUAUAUUACCUGGUA, which self-cleavage is on record?
The self-cleavage was 1.07.

For GUCCUCUUUCACGUGCGCGUGAUAGAGAGAAGUGAACCAGAGAAACACGCGUUGUGGUAUAUUACCUGGUA, which self-cleavage is on record?
Its self-cleavage is 0.356.

With GUCCUCUUUCACGUGCGCGUGAGAGAGAGAAGUGAACCAGAGAAACACACGUUGUGGUAUAUUACCUGGGA as the variant, how does the self-cleavage read?
Its self-cleavage is 0.759.

For GUCCUCUUUCACGUGCGCGUGAUAGAGAGAAGUGUACCAGAGAAACACACGUUGUGGUAUAUUACCUGGUA, which self-cleavage is on record?
Its self-cleavage is 0.754.

With GUCCUCUUUCACGUGCGCGUGAUAGAGAGAAGUGAAGCAGAGAAACACACGUUGUGGUAUAUUACCUGGUA as the variant, how does the self-cleavage read?
The self-cleavage was 0.438.

For GUCCUCUUUCACGUGCGCGUGAUAGAGAGAAGUGAACCAGAGAAACACACGUUGUGGUAUAUUACCUUGUA, which self-cleavage is on record?
Its self-cleavage is 0.197.

For GUCCUCUUUCACGUGCGCGUGAUAGAGAGAAGUGAACCAGAGAAACUCACGUUGUGGUAUAUUACCUGGUA, which self-cleavage is on record?
Its self-cleavage is 0.105.

With GUCCUCUUUCACGUGCGCGUGAUAGAGAGAAGUGAACCAGAGAAACGCACGUUGUGGUAUAUUACCUGGUA as the variant, how does the self-cleavage read?
The self-cleavage was 0.11.

With GUCCUCUUUCACGUGCGCGUGAUAGAGAGAAGUGAACCAGAGAAACACACGUUGUGGUAUAUUACCUGGUU as the variant, how does the self-cleavage read?
Its self-cleavage is 0.66.

For GUCCUCUUUCACGUGCGCGUGAUAGAGAGAAGUCAACCAGAGAAACACACGUUGUGGUAUAUUACCUGGUA, which self-cleavage is on record?
The self-cleavage was 1.12.

With GUCCUCUUUCACGUGCGCGUGAUGGAGAGAAGUGAACCAGAGAAACACACGUUGUGGUAUAUUACCUGGUA as the variant, how does the self-cleavage read?
Its self-cleavage is 0.587.

With GUCCUCUUUCACGUGCGCGUGAUAGAGAGAAGUGAACCAGAGAUACACACGUUGUGGUAUAUUACCUGGUA as the variant, how does the self-cleavage read?
The self-cleavage was 0.15.

Which self-cleavage does the source give for GUCCUCUUUCACGUGCGCGUGAUAGAGAGAAGUGAACCAGAGAGACACACGUUGUGGUAUAUUACCUGGUA here?
The self-cleavage was 0.248.

With GUCCUCUUUCACGUGCGCGUGAGAGAGAGAAGUGAACCAGAGAAACACACGUUGCGGUAUAUUACCUGGUA as the variant, how does the self-cleavage read?
The self-cleavage was 0.322.

For GUCCUCUUUCACGUGCGCGUGAGAGAGAGAAGUGAACCAGAGAAACACACGUUGAGGUAUAUUACCUGGUA, which self-cleavage is on record?
Its self-cleavage is 0.273.

Which self-cleavage does the source give for GUCCUCUUUCACGUGCGCGUGAGAGAGAGAAGUGAACCAGAGAAACACACGUUGUGGGAUAUUACCUGGUA here?
Its self-cleavage is 0.657.

For GUCCUCUUUCACGUGCGCGUGAUAGAGAGAAGUGAACCAGAGAAACACAAGUUGUGGUAUAUUACCUGGUA, which self-cleavage is on record?
Its self-cleavage is 0.277.

For GUCCUCUUUCACGUGCGCGUGAUAGAGAGAAGUGAACCAGAGAAACACAGGUUGUGGUAUAUUACCUGGUA, which self-cleavage is on record?
Its self-cleavage is 0.239.

For GUCCUCUUUCACGUGCGCGUGAGAGAGAGAAGUGAACCAGAGAAACACACGUUGUGGUAUAUUACCCGGUA, which self-cleavage is on record?
The self-cleavage was 0.218.

Which self-cleavage does the source give for GUCCUCUUUCACGUGCGCGUGAGAGAGAGAAGUGAACCAGAGAAACACACGUUGUGGUAUAUUACCAGGUA here?
Its self-cleavage is 0.105.

Which self-cleavage does the source give for GUCCUCUUUCACGUGCGCGUGAUAGAGAGAAGUGAACCAGAGAAGCACACGUUGUGGUAUAUUACCUGGUA here?
The self-cleavage was 0.129.

For GUCCUCUUUCACGUGCGCGUGAGAGAGAGAAGAGAACCAGAGAAACACACGUUGUGGUAUAUUACCUGGUA, which self-cleavage is on record?
Its self-cleavage is 0.131.

Which self-cleavage does the source give for GUCCUCUUUCACGUGCGCGUGAGAGAGAGAAGGGAACCAGAGAAACACACGUUGUGGUAUAUUACCUGGUA here?
The self-cleavage was 0.125.

With GUCCUCUUUCACGUGCGCGUGAGAGAGAGAAGUGAACCAGAGAAACACACGUUGUGAUAUAUUACCUGGUA as the variant, how does the self-cleavage read?
The self-cleavage was 0.19.

With GUCCUCUUUCACGUGCGCGUGAGAGAGAGAAGUGAACCAGAGAAACACACGUUGUGCUAUAUUACCUGGUA as the variant, how does the self-cleavage read?
Its self-cleavage is 0.177.

With GUCCUCUUUCACGUGCGCGUGAUAUAGAGAAGUGAACCAGAGAAACACACGUUGUGGUAUAUUACCUGGUA as the variant, how does the self-cleavage read?
The self-cleavage was 0.216.

For GUCCUCUUUCACGUGCGCGUGAUAAAGAGAAGUGAACCAGAGAAACACACGUUGUGGUAUAUUACCUGGUA, which self-cleavage is on record?
Its self-cleavage is 0.186.

Which self-cleavage does the source give for GUCCUCUUUCACGUGCGCGUGAUACAGAGAAGUGAACCAGAGAAACACACGUUGUGGUAUAUUACCUGGUA here?
Its self-cleavage is 0.132.

For GUCCUCUUUCACGUGCGCGUGAGAGAAAGAAGUGAACCAGAGAAACACACGUUGUGGUAUAUUACCUGGUA, which self-cleavage is on record?
The self-cleavage was 0.496.

With GUCCUCUUUCACGUGCGCGUGAUAGAGAGAAGUGAACCAGAGAAACACACGUUGUGGUGUAUUACCUGGUA as the variant, how does the self-cleavage read?
The self-cleavage was 0.183.
